Experimental data as given in USRE46585 (LABORATOIRE FRANCAIS DU FRACTIONNEMENT ET DES …, dated 2017).
Read-outs that look alike come from different tables or passages of the source.

Assays:
FcRn-p3 fusion protein [1] = molecular target: T1, FcRn-p3 fusion protein (human, UniProt P55899 24-297; P61769 21-119); assay: ELISA pH6, soluble Fc on coated FcRn-p3
T1 construct: baculovirus expressed; coated on ELISA wells; not shown: amino terminal part of bacteriophage p3 protein and CVDE protein

FcRn-p3 fusion protein [2] = molecular target: T1, FcRn-p3 fusion protein; assay: phage ELISA pH6 (est.)
FcRn-p3 fusion protein [3] = molecular target: T1, FcRn-p3 fusion protein; assay: phage ELISA pH6
FcRn-p3 fusion protein [4] = molecular target: T1, FcRn-p3 fusion protein; assay: phage ELISA pH6 (est.); remark: listed apart in the source
FcRn-p3 fusion protein [5] = molecular target: T1, FcRn-p3 fusion protein; assay: phage ELISA pH6 (est.); remark: listed apart in the source
FcRn-p3 fusion protein [6] = molecular target: T1, FcRn-p3 fusion protein; assay: phage ELISA pH6; remark: listed apart in the source
FcRn-p3 fusion protein [7] = molecular target: T1, FcRn-p3 fusion protein; assay: phage ELISA pH6; remark: listed apart in the source
[8] = molecular target: T2, recombinant soluble human FcRn (human, UniProt P55899 24-297; P61769 21-119); assay: SPR pH6, immobilized FcRn, steady state
T2 construct: amine-coupled to the SPR chip
T2 sequence (P55899 24-297, chain 1 of 2): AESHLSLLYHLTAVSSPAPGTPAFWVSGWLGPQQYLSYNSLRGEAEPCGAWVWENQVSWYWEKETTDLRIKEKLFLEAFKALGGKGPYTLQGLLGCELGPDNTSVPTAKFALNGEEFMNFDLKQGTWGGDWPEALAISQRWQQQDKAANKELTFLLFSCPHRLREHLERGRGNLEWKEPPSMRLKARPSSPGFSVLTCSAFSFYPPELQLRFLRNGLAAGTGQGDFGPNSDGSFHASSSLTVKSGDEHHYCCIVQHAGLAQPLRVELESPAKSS
T2 sequence (P61769 21-119, chain 2 of 2): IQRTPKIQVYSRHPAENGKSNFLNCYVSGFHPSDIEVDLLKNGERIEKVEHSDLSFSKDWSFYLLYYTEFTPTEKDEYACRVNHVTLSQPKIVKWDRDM

T1 sequence (P55899 24-297, chain 1 of 2): as the sequence (P55899 24-297, chain 1 of 2) above
T1 sequence (P61769 21-119, chain 2 of 2): as the sequence (P61769 21-119, chain 2 of 2) above

B1: C6A_66 (soluble recombinant Fc polypeptide) (other)
chain: CPPCPAPELLGGPSVFLFPPKPKDTLMISRTPEVTCVVVDVSHEDPEVKFNWYVDGVEVHNAKTKPREQYNSTYRVVSVLPVLHQDWLNGKEYKCKVSNKALPAPIEKTISKAKGQPREPQVYTLPPSRDELTKNQVSLTCLVKGFYPSDIAVEWESNGQPENNYKTTPPVLDSDGSFFLYSKLTVDKSRWQQGNVFSCSVMHEALHYHYTQKSLSLSPGK
notes: EU numbering; E. coli periplasmic expression; E294del is a deletion; not shown: C-terminal 6xHis tag and V5 tag
EC50 (FcRn-p3 fusion protein [1]): 4.9 nM

B2: C6A_69 (other)
chain: CPPCPAPELLGGPSVFLFPPKPKDTLMISRTPEVTCVVVDVSHEDPEVKFNWYVDGVEVHNAKTKPREEQYNSTYRVVSVLAVLHQDWLDGKEYKCKVSNKALPVPIEKTISKAKGQPREPQVYTLPPSRDELTKNQVSLTCLVKGFYPSDIAVEWVSNGQPETNYKTTPPVLDSDGSFFLYSKLTVDKSRWQQGNVFSCSVMHEALHYHYTQKSLSLSPGK
notes: EU numbering
Ratio/FWT (FcRn-p3 fusion protein [2]): 28.4 fold
Ratio/Fc-H (FcRn-p3 fusion protein [3]): 8.9 fold
Ratio/Fc-WT (FcRn-p3 fusion protein [4]): 28.4 fold
phage-ELISA ratio/WT (FcRn-p3 fusion protein [5]): 28.4 fold
Ratio/Fc-H (FcRn-p3 fusion protein [6]): 8.9 fold

B3: S5A_43 (other)
chain: CPPCSAPELLGGPSVFLFPPKPKDTLMISRTPEVTCVVVDVSHEDPEVKFNWYVDGVELHNAKTKPREEQYNSTYRVVSVLTVLHQDWLNGKEYKCKVSNKALPAPIEKTISKAKGQPREPQVYTLPPSRDELTKNQVSLTCLVKGFYPSDIVVEWESNGQPENNYKTTPPVLDSDGSFFLYSKLTVDKSRWQQGNVFSCSVMHEALHNHYTQKSLSLSPGK
notes: EU numbering
Ratio/Fc-WT (FcRn-p3 fusion protein [7]): 5.7 fold

B4: S4A_36 (other)
chain: CPPCQAPELLGGPSVFLFPPKPKDTLMISRTPEVTCVVADVSHEDPEVKFNWYVDGVEVHNAKTKPREEQYNSTYRVVSVLTVLHQDWLNGKEYKCKVSNKALPAPIEKTISKAKGQPREPQVYTLSPSRDELTKNQVSLTCLVKGFYPSDIVVEWESNGQPENNYKTTPPVLDSDGSFFLYSKLTVDKSRWQQGNVFSCSVMHEALHNHYTQKSLSLSPGK
notes: EU numbering
Ratio/Fc-WT (FcRn-p3 fusion protein [7]): 4.5 fold

B5: T5A_78 (soluble recombinant Fc polypeptide) (other)
chain: CPPCPAPELLGGPSVFLFPPKPKDTLMISRTPEVTCVVEDVSHEDPEVKFNWYVDGVEVHNAKTKPREEQYNSTYRVVSVLTVLHQDWLNGKEYKCKVSNKALPAPIEKTISKAKGQPREPQVYTLPPSRDELTKNQVSLTCLVKGFYPSDIAVEWESNGRPENNYKTTPLVLDSDGSFFLYSKLTVDKSRWQQGNVFSCSVMHEALHSHYTQRSLSLSPGK
notes: EU numbering; E. coli periplasmic expression; not shown: C-terminal 6xHis tag and V5 tag
Kd [8]: 12.4 nM

B6: C6A_60 (soluble recombinant Fc polypeptide) (other)
chain: CPPCSAPELLGGPSVFLFPPKPKDTLMISRTPEVTCVVVDVSHEDPEVKFNWYVDGVEVHNAKTKPREEQYNSTYRVVSVLTVLHQDWLDGKEYKCKVSNKALPAPIEKTISKAKGQPREPQVYTLPPSRDELTKNQVSLTCLVKGFYPSDIAVEWESNGQPENNYKTTPPVLDSDGSFFLYSKLTVDKSRWQQGNVFSCSVLHEALHYHYTQKSLSLSPGK
notes: as for B5
EC50 (FcRn-p3 fusion protein [1]): 2.6 nM

B7: T5A_74 (soluble recombinant Fc polypeptide) (other)
chain: CPPCPAPELLGGPSVFLFPPKPKDTLMISRTPEVTCVVVDVSHEDPEVKFNWYVDGVEVHNAKTKPREEQYNSTYRVVSVLTVLHQDWLDGKEYKCKVSNKALPVPIEKTISKAKGQPREPQVYTLPPSRDELTKDQVSLTCLVKGFYPSDIVVEWESNGQPENNYKTTPPVLDSDGSFFLYSKLTVDKSRWQQGNVFSCSVMHEALHYHYTQKSLSLSPGK
notes: as for B5
EC50 (FcRn-p3 fusion protein [1]): 5.5 nM

B8: T5A_94 (soluble recombinant Fc polypeptide) (other)
chain: CPPCPAPELLGGPSVFLFPPKPKDTLMISRTPEVTCVVEDVSHEDPEVKFNWYVDGVEVHNAKTKPREEQYNSTYRVVSVLTVLHQDWLNGKEYKCKVSNKALPAPIEKTISKAKGQPREPQVYTLPPSRDELTKNQVSLTCLVKGFYPSDITVEWESNGQPENNYKTTPLVLDSDGSFFLYSKLTVDKSRWQQGNVFSCSVMHEALHNHYTQKSLSLSPGK
notes: as for B5
Kd [8]: 13.7 nM
EC50 (FcRn-p3 fusion protein [1]): 166 nM

B9: S5A_26 (other)
chain: CPPCPAPELLGGPSVFLFPPKPKDTLMISRTPEVTCVVVDVSHEDPEVKFNWYVDGVEVHNAKTKPREEQYNSTYRVVSVLTVLHRDWLNGKEYKCKVSNKALPAPIERTISKAKGEPREPQVYTLPPSRDELTKNQVSLTCLVKGFYPSDIAVEWESNGQPENNYKTTPPVLDSDGSFFLYSKLTVDKSRWQQGNVFSCSVMHEALHYHYTQKSLSLSPGK
notes: EU numbering
Ratio/Fc-WT (FcRn-p3 fusion protein [7]): 7.9 fold

B10: S6A_48 (other)
chain: CPPCPAPELLGGPSVFLFPPKPKDTLMISRTPEVTCVVVDVSHEDPEVKFNWYVDGVEVHNAKTKPREEQYNSTYRVVSVLTVLHQDWLNGKEYKCKVSNKALPAPIEKTISKAKGQPREPQVYTLPPSQDELTKNQVSLTCLVKGFYPSDIAVEWESNGQPENNYENTPPVLDSDGSFFLYSKLTVDKSRWQQGNVFSCTVMHEALHYHYTQKSLSLSPGK
notes: EU numbering
Ratio/Fc-WT (FcRn-p3 fusion protein [7]): 4.4 fold

B11: C6A_74 (soluble recombinant Fc polypeptide) (other)
chain: CPPCPAPELLGGPSVFLFPPKPKDTLMISRTPEITCVVVDVSHEDPEVKFNWYVDGVEVHNAKTKPREEQYNSTYRVVSVLTVLHQDWLDGKEYKCKVSNKALPAPIEKTISKAKGQPREPQVYTLPPSRDELTKNQVSLTCLVKGFYPSDIAVEWESNGQPENNYKTTPPVLDSDGSFFLYSKLTVDKSRWQQGNVFSCSVMHEALHYHYTQKSLSLSPGK
notes: as for B5
Kd [8]: 5.9 nM
EC50 (FcRn-p3 fusion protein [1]): 7.3 nM

B12: S5A_07 (other)
chain: CPPCPAPELLGGPSVFLFPPKPKDTLMISRTPEVTCVVVDVSHEDPEVKFNWYVDGVEVHNAKTKPREEQYNSTYRVVSVLTVLHQDWLNGKEYKCKVSNKALPAPIEKTISKAKGQPREPQVYTLPPSRDELTKNQVSLTCLVKGFYPSDIVVEWESNGQPENNYKTTPPVLDSDGSFFLYSKLTVDKSRWQQGTVFSCSVMHEALHSHYTQKSLSLSPGK
notes: EU numbering
Ratio/Fc-WT (FcRn-p3 fusion protein [7]): 5.1 fold

B13: SSA_20 (other)
chain: CPPCQAPELLGGPSVYLFPPRPKDTLMISRTPEVTCVVVDVSHEEPEVKFNWYVDGVEVHNAKTKPREEQYNSTYRVVSVLTVLHQDWLNGKEYKCKVSNKALPAPIEKTISKAKGQPREPQVYTLPPSRDELTKNQVSLTCLVKGFYPSDIAVEWESNGQPENNYKTTPPVLDSDGSFFLYSKLTVDKSRWQQGNVFSCSVMHEALHNHYTQKSLSLSPGK
notes: EU numbering; also called S5A_20 (probable reading)
Ratio/Fc-WT (FcRn-p3 fusion protein [7]): 4.3 fold

B14: C6A_69 (soluble recombinant Fc polypeptide) (other)
chain: CPPCPAPELLGGPSVFLFPPKPKDTLMISRTPEVTCVVVDVSHEDPEVKFNWYVDGVEVHNAKTKPREEQYNSTYRVVSVLAVLHQDWLDGKEYKCKVSNKALPVPIEKTISKAKGQPREPQVYTLPPSRDELTKNQVSLTCLVKGFYPSDIAVEWVSNGQPETNYKTTPPVLDSDGSFFLYSKLTVDKSRWQQGNVFSCSVMHEALHYHYTQKSLSLSPGK
notes: as for B5
Kd [8]: 7.2 nM
SPR Ratio/Fc-WT (Fc-WT Kd / variant Kd) [8]: 4.2 fold
EC50 (FcRn-p3 fusion protein [1]): 3.7 nM
ELISA ratio/Fc-WT (Fc-WT EC50 / variant EC50) (FcRn-p3 fusion protein [1]): 124 fold

B15: S4A_42 (other)
chain: CPPCPAPELLGGPSVFLFPPKPKDTLMISRTPEVTCVVADVSHEDPEVKFNWYVDGVEVHNAKTKPREEQYNSTYRVVSVLTVLHQDWLNGKEYKCKVSNKALPAPIEKTISKAKGQPREPQVYTLPPSRDELTKNQVSLTCLVKGFYPSDIAVEWESNGQPENNYKTTPPVLDSDGSFFLYSKLTVDKSRWQQGNVFSCSVMHEALHYHYTQKSLSLSPAK
notes: EU numbering
Ratio/Fc-WT (FcRn-p3 fusion protein [7]): 4.2 fold

B16: C6A_72 (soluble recombinant Fc polypeptide) (other)
chain: CPPCPAPELLGGPSVFLFPPKPKDALMISRTPEVTCVVVDVSHEDPEVKFNWYVDGVEVHNAKTKPREEQYNSTYRVVSVLTVLHQDWLNGKEYKCKVSNKALPAPIEKTISKAKGQPREPQVYTLPPSRDELTKNQVSLTCLVKGFYPSDIAVEWESNGQPEKNYKTTPPVLDSDGSFFLYSKLTVDKSRWQQGNVFSCSVMHEALHYHYTQKSLSLSPGK
notes: as for B5
Kd [8]: 12.4 nM
SPR Ratio/Fc-WT (Fc-WT Kd / variant Kd) [8]: 2.4 fold
EC50 (FcRn-p3 fusion protein [1]): 7.8 nM
ELISA ratio/Fc-WT (Fc-WT EC50 / variant EC50) (FcRn-p3 fusion protein [1]): 59 fold

B17: S4A_25 (other)
chain: CPPCPAPELLGGPSVFLFPPKPKDTLMISRTPEVTCVVVGVSHEDPEVKFNWYVDGVEVHNAKTKPREEQYNSTYRVVSVLTVLHQDWLNGKEYKCKVSNKALPAPIEKTISKAKGQPREPQVYTLPPSRDELTKNQVSLTCLVKGFYPSDIAVEWESNGQPENNYKTTPPVLDSDGSFFLYTKLTVDKSRWQQGNVFSCSVMHEALHYHYTQKSLSLFPGK
notes: EU numbering
Ratio/Fc-WT (FcRn-p3 fusion protein [7]): 4.2 fold

B18: T5A_81 (soluble recombinant Fc polypeptide) (other)
chain: CPPCPAPELLGGPSVFLFPPKPKDTLMISRTPEVTCVVEDVSHEDPEVKFNWYVDGVEVHNAKTKPREEQYNSTYRVVSVLTVLHQDWLNGKEYKCKVSNKALPAPIEKTISKAKGQPREPQVYTLPPSRDELTKNQVSLTCLVKGFYPSDIVVEWESNGQPENNYKTTPPVLDSDGSFFLYSKLTVDKSKWQQGNVFSCSVMHEALHNHYTQKSLSLSPGK
notes: as for B5
Kd [8]: 22.7 nM
SPR Ratio/Fc-WT (Fc-WT Kd / variant Kd) [8]: 1.3 fold
EC50 (FcRn-p3 fusion protein [1]): 145 nM
ELISA ratio/Fc-WT (Fc-WT EC50 / variant EC50) (FcRn-p3 fusion protein [1]): 3 fold

B19: T5A_58 (soluble recombinant Fc polypeptide) (other)
chain: CPPCPAPELLGGPSVLLFPPKPKDTLMISRTPEVTCVVEDVSHEDPEVKFNWYVDGVEVHNAKTKPREEQYNSTYRVVSVLPVLHQDWLNGKEYKCKVSNKALPAPIEKTISKAKGQPREPQVYTLPPSRDELTKNQVSLTCLVKGFYPSDIVVEWESNGQPENNYKTTPPVLDSDGSFFLYSKLTVDKSRWQQGNVFSCSVMHEALRNHYTQKSLSLSPGK
notes: as for B5
Kd [8]: 15.4 nM
